Measured values published in IntAct's records for PubMed 21816274.

B1: Gem-associated protein 2 (Homo sapiens), O14893 (parent)
chain: MRRAELAGLKTMAWVPAESAVEELMPRLLPVEPCDLTEGFDPSVPPRTPQEYLRRVQIEAAQCPDVVVAQIDPKKLKRKQSVNISLSGCQPAPEGYSPTLQWQQQQVAQFSTVRQNVNKHRSHWKSQQLDSNVTMPKSEDEEGWKKFCLGEKLCADGAVGPATNESPGIDYVQIGFPPLLSIVSRMNQATVTSVLEYLSNWFGERDFTPELGRWLYALLACLEKPLLPEAHSLIRQLARRCSEVRLLVDSKDDERVPALNLLICLVSRYFDQRDLADEPS

Variants of: B1
Settings: with smn_human SMN1, Q16637
Sequence of smn_human SMN1, Q16637 (Q16637 whole entry): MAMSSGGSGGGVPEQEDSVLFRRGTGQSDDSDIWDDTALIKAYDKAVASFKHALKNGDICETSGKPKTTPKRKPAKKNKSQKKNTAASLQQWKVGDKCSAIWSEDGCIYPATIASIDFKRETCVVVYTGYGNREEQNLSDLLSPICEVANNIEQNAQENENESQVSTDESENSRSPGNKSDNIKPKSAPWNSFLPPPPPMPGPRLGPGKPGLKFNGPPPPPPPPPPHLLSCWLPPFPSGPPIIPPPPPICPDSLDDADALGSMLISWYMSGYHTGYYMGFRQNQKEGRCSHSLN

effect of a mutation on the interaction | Variant
disrupting interaction | MRRAELAGLKTMAWVPAESAVEELMPRLLPVEPCDLTEGFDPSVPPRTPQEYLRRVQIEAAQCPDVVVAQIDPKKLKRKQSVNISLSGCQPAPEGYSPTLQWQQQQVAQFSTVRQNVNKHRSHWKSQQLDSNVTMPKSEDEEGWKKFCLGEKLCADGAVGPATNESPGIDYVQIGFPPLLSIVSRMNQATVTSVLEYLSNWFGERDFTPELGDWLYALLACLEKPLLPEAHSLIRQLARRCSEVRLLVDSKDDERVPALNLLICLVSRYFDQRDLADEPS [R213D]
